Assay results taken from patent publication US5622933A, “Multiple branch peptide constructions for use against HIV” (priority 1993, dated 1997).
“And” between values parts separate entries of the source, which are not always exact repeats. Equal values may be shown once. Ends that are not written are not given here.

Legend:
New Zealand rabbits = experiment: Immunogenicity in rabbits (serum ELISA for anti MBPC.3 antibodies); assay type: in vivo, rabbit
Experimental: […] This procedure was repeated subcutaneously with incomplete Freud's adjuvant on days 30, 60, 90 and 120. Sera were tested by ELISA, looking for specific anti MBPC.3 antibodies. Data presented here is from the last serum samples (120+7 days).
[…] After saturation with 400 μL of casein (5 g/100 ml), different serum dilutions were added for 2 hours at 37° C. The controls were sera from non-immunized rabbits and mice. After rinsing (5×), 50 μl of 1:5000 of peroxidase-labeled swine anti-rabbit IgG or anti-mouse IgG (Dakopatts, Copenhagen, Denmark) were added for 1 hour at 37° C. After further rinsing (5×), 100 μl of ortho-phenylenediamine were added for 30 min in the dark at room temperature. The reaction was stopped by adding 50 μl of 4N sulfuric acid, and optical density (OD) ratios were determined at 492/620 nm.

CEM or C8166 cells = conditions: concentrations of 10^-7 to 10^-4 M; cultured continuously (15 days)
Experimental: An MTT assay, a colorimetric cell viability assay using 3-[4,5-Dimethylthiazol-2-yl] 2,5-diphenyltetrazolium bromide, was used to assess the effect of MBPCs on cell viability. CEM or C8166 cells (5×10^4) were cultured continuously (15 days) in the presence of various concentrations of MBPCs in the wells of 96-well microtiter plates in 200 μl final volume of RPMI 1640 medium supplemented with 5% fetal calf serum, 1% glutamine, 1% streptomycin-penicillin (available from Gibco of Irvine, Scotland) in a humidified atmosphere with 5% CO2. Every 3 to 4 days, an MTT assay was performed on 100 μl of cells suspension and MBPC were added to cell culture and the volume completed to 200 μl.

HIV-1 (NDK) = experiment: Fusion between chronically infected CEM cells and MT-2 cells; assay type: cell-based; conditions: separate tests
HIV-2 = experiment: Infection of human PBLs; assay type: cell-based; conditions: MBPC 10^-5 M
Experimental: Peripheral blood lymphocytes (PBLs) were obtained from healthy donors, stimulated with phytohemagglutinin, and cultivated in RPMI 1640 containing 10% fetal calf serum and interleukin-2 (complete medium). Samples of 6×10^6 cells/ml were either treated or not treated with the indicated MBPC at a concentration of 10^-5 M and exposed to HIV-1 or HIV-2 (100 TCID50) for 1 hour at 37° C. in the continued presence of MBPCs. After thorough washing, PBLs were cultured in complete medium with 10^-5 M of the corresponding MBPC. The state of infection was assessed by determination of RT activity (for both HIV-1 and HIV-2 isolates) and HIV-1 p24^gag measurements (Coulter kit, cut-off 10 pg/ml) in the case of HIV-1 isolates 10 days post-infection. The MBPC treatment used were as follows: 1-none; 2- [GPGRAF]8 -MLC; 3-[[…]]4 -MLC; 4- [[…]]4 -MLC (a non-HIV related MBPC) (MLC indicates a core lysine structure). The results shown in FIGS. 2A-2C are representative of three separate experiments. The nature of the viral isolates used was checked by PCR (HIV-1 versus HIV-2 isolates) and RIPA for discriminating between HIV-1 (LAI) and HIV-1 (NDK).

**Q.** For (GPGRAF)8 -(K)4 -(K)2 -K-βA-OH [MBPC.3], which “optical density (OD) ratio 492/620 nm (×10^3)” value (New Zealand rabbits; plate 1, rabbit serum 10^-2, coat 0.5 μg MBPC.3/ml) is on record?
**A.** Its value is 968 and 981.

**Q.** What about the “optical density (OD) ratio 492/620 nm (×10^3)” value (New Zealand rabbits; plate 1, rabbit serum 10^-2, coat 1 μg MBPC.3/ml) of the same substance?
**A.** Its value is 1280 and 1267.

**Q.** And the “optical density (OD) ratio 492/620 nm (×10^3)” value (New Zealand rabbits; plate 1, rabbit serum 10^-2, coat 5 μg MBPC.3/ml)?
**A.** Its value is 2000.

**Q.** What about the “optical density (OD) ratio 492/620 nm (×10^3)” value (New Zealand rabbits; plate 1, rabbit serum 10^-2, coat 10 μg MBPC.3/ml) of the same substance?
**A.** The value was 2000.

**Q.** What about the “optical density (OD) ratio 492/620 nm (×10^3)” value (New Zealand rabbits; plate 1, rabbit serum 10^-3, coat 0.5 μg MBPC.3/ml) of the same substance?
**A.** The value was 318 and 296.

**Q.** And the “optical density (OD) ratio 492/620 nm (×10^3)” value (New Zealand rabbits; plate 1, rabbit serum 10^-3, coat 1 μg MBPC.3/ml)?
**A.** Its value is 346 and 349.

**Q.** What about the “optical density (OD) ratio 492/620 nm (×10^3)” value (New Zealand rabbits; plate 1, rabbit serum 10^-3, coat 5 μg MBPC.3/ml) of the same substance?
**A.** The value was 2000.

**Q.** And the “optical density (OD) ratio 492/620 nm (×10^3)” value (New Zealand rabbits; plate 1, rabbit serum 10^-3, coat 10 μg MBPC.3/ml)?
**A.** The value was 2000.

**Q.** And the “optical density (OD) ratio 492/620 nm (×10^3)” value (New Zealand rabbits; plate 1, rabbit serum 10^-4, coat 0.5 μg MBPC.3/ml)?
**A.** The value was 145 and 140.

**Q.** And the “optical density (OD) ratio 492/620 nm (×10^3)” value (New Zealand rabbits; plate 1, rabbit serum 10^-4, coat 1 μg MBPC.3/ml)?
**A.** Its value is 182 and 193.

**Q.** And the “optical density (OD) ratio 492/620 nm (×10^3)” value (New Zealand rabbits; plate 1, rabbit serum 10^-4, coat 5 μg MBPC.3/ml)?
**A.** Its value is 796 and 809.

**Q.** And the “optical density (OD) ratio 492/620 nm (×10^3)” value (New Zealand rabbits; plate 1, rabbit serum 10^-4, coat 10 μg MBPC.3/ml)?
**A.** The value was 924 and 823.

**Q.** What about the “optical density (OD) ratio 492/620 nm (×10^3)” value (New Zealand rabbits; plate 2, rabbit serum 10^-2, coat 5 μg MBPC.3/ml) of the same substance?
**A.** The value was 2000.

**Q.** And the “optical density (OD) ratio 492/620 nm (×10^3)” value (New Zealand rabbits; plate 2, rabbit serum 10^-2, coat 10 μg MBPC.3/ml)?
**A.** Its value is 2000.

**Q.** And the “optical density (OD) ratio 492/620 nm (×10^3)” value (New Zealand rabbits; plate 2, rabbit serum 10^-3, coat 0.5 μg MBPC.3/ml)?
**A.** The value was 197 and 181.

**Q.** What about the “optical density (OD) ratio 492/620 nm (×10^3)” value (New Zealand rabbits; plate 2, rabbit serum 10^-3, coat 5 μg MBPC.3/ml) of the same substance?
**A.** Its value is 2000.

**Q.** What about the “optical density (OD) ratio 492/620 nm (×10^3)” value (New Zealand rabbits; plate 2, rabbit serum 10^-3, coat 10 μg MBPC.3/ml) of the same substance?
**A.** The value was 2000.

**Q.** And the “optical density (OD) ratio 492/620 nm (×10^3)” value (New Zealand rabbits; plate 2, rabbit serum 10^-4, coat 0.5 μg MBPC.3/ml)?
**A.** The value was 80 and 74.

**Q.** What about the “optical density (OD) ratio 492/620 nm (×10^3)” value (New Zealand rabbits; plate 2, rabbit serum 10^-4, coat 1 μg MBPC.3/ml) of the same substance?
**A.** Its value is 113 and 84.

**Q.** What about the “optical density (OD) ratio 492/620 nm (×10^3)” value (New Zealand rabbits; plate 2, rabbit serum 10^-4, coat 5 μg MBPC.3/ml) of the same substance?
**A.** Its value is 678 and 626.

**Q.** What about the “optical density (OD) ratio 492/620 nm (×10^3)” value (New Zealand rabbits; plate 2, rabbit serum 10^-4, coat 10 μg MBPC.3/ml) of the same substance?
**A.** The value was 734 and 689.

**Q.** And the “optical density (OD) ratio 492/620 nm (×10^3)” value (New Zealand rabbits; plate 3, rabbit serum 10^-2, coat 0.5 μg MBPC.3/ml)?
**A.** The value was 416 and 287.

**Q.** What about the “optical density (OD) ratio 492/620 nm (×10^3)” value (New Zealand rabbits; plate 3, rabbit serum 10^-2, coat 1 μg MBPC.3/ml) of the same substance?
**A.** The value was 402 and 401.

**Q.** What about the “optical density (OD) ratio 492/620 nm (×10^3)” value (New Zealand rabbits; plate 3, rabbit serum 10^-2, coat 5 μg MBPC.3/ml) of the same substance?
**A.** Its value is 857 and 868.

**Q.** What about the “optical density (OD) ratio 492/620 nm (×10^3)” value (New Zealand rabbits; plate 3, rabbit serum 10^-2, coat 10 μg MBPC.3/ml) of the same substance?
**A.** The value was 818 and 953.

**Q.** What about the “optical density (OD) ratio 492/620 nm (×10^3)” value (New Zealand rabbits; plate 3, rabbit serum 10^-3, coat 0.5 μg MBPC.3/ml) of the same substance?
**A.** The value was 148 and 155.

**Q.** And the “optical density (OD) ratio 492/620 nm (×10^3)” value (New Zealand rabbits; plate 3, rabbit serum 10^-3, coat 1 μg MBPC.3/ml)?
**A.** The value was 168 and 150.

**Q.** And the “optical density (OD) ratio 492/620 nm (×10^3)” value (New Zealand rabbits; plate 3, rabbit serum 10^-3, coat 5 μg MBPC.3/ml)?
**A.** The value was 323 and 314.

**Q.** And the “optical density (OD) ratio 492/620 nm (×10^3)” value (New Zealand rabbits; plate 3, rabbit serum 10^-3, coat 10 μg MBPC.3/ml)?
**A.** Its value is 342 and 328.

**Q.** And the “optical density (OD) ratio 492/620 nm (×10^3)” value (New Zealand rabbits; plate 3, rabbit serum 10^-4, coat 0.5 μg MBPC.3/ml)?
**A.** Its value is 64 and 69.

**Q.** What about the “optical density (OD) ratio 492/620 nm (×10^3)” value (New Zealand rabbits; plate 3, rabbit serum 10^-4, coat 1 μg MBPC.3/ml) of the same substance?
**A.** The value was 72 and 89.

**Q.** And the “optical density (OD) ratio 492/620 nm (×10^3)” value (New Zealand rabbits; plate 3, rabbit serum 10^-4, coat 5 μg MBPC.3/ml)?
**A.** The value was 170 and 169.

**Q.** What about the “optical density (OD) ratio 492/620 nm (×10^3)” value (New Zealand rabbits; plate 3, rabbit serum 10^-4, coat 10 μg MBPC.3/ml) of the same substance?
**A.** Its value is 191 and 184.

**Q.** What about the “optical density (OD) ratio 492/620 nm (×10^3)” value (New Zealand rabbits; plate 4, rabbit serum 10^-2, coat 0.5 μg MBPC.3/ml) of the same substance?
**A.** The value was 424 and 425.

**Q.** And the “optical density (OD) ratio 492/620 nm (×10^3)” value (New Zealand rabbits; plate 4, rabbit serum 10^-2, coat 1 μg MBPC.3/ml)?
**A.** The value was 419 and 447.

**Q.** And the “optical density (OD) ratio 492/620 nm (×10^3)” value (New Zealand rabbits; plate 4, rabbit serum 10^-2, coat 5 μg MBPC.3/ml)?
**A.** The value was 749 and 792.

**Q.** What about the “optical density (OD) ratio 492/620 nm (×10^3)” value (New Zealand rabbits; plate 4, rabbit serum 10^-2, coat 10 μg MBPC.3/ml) of the same substance?
**A.** The value was 849 and 843.

**Q.** And the “optical density (OD) ratio 492/620 nm (×10^3)” value (New Zealand rabbits; plate 4, rabbit serum 10^-3, coat 0.5 μg MBPC.3/ml)?
**A.** Its value is 163 and 154.

**Q.** What about the “optical density (OD) ratio 492/620 nm (×10^3)” value (New Zealand rabbits; plate 4, rabbit serum 10^-3, coat 1 μg MBPC.3/ml) of the same substance?
**A.** Its value is 221 and 151.

**Q.** And the “optical density (OD) ratio 492/620 nm (×10^3)” value (New Zealand rabbits; plate 4, rabbit serum 10^-3, coat 5 μg MBPC.3/ml)?
**A.** The value was 310 and 304.

**Q.** What about the “optical density (OD) ratio 492/620 nm (×10^3)” value (New Zealand rabbits; plate 4, rabbit serum 10^-3, coat 10 μg MBPC.3/ml) of the same substance?
**A.** The value was 332 and 314.

**Q.** What about the “titers of anti-GPGRAF antibodies” value (New Zealand rabbits; rabbits injected) of the same substance?
**A.** Its value is “did not produce significant titers”.

**Q.** What about the “toxicity to cells (MTT assay)” value (CEM or C8166 cells) of the same substance?
**A.** Its value is “not toxic”.

**Q.** What about the block of fusion (HIV-1 (NDK)) of the same substance?
**A.** The block of fusion was “able to block the fusion”.

**Q.** How did the “potency for inhibition of HIV-2 infection, in words” value (HIV-2) turn out when “(RKSIHIGPGRAFYT)4 -(K)2 -K-βA-OH (also: four copies on lysine core (K)2-K-βA-OH) [MBPC.5, tetradecapeptide MBPC]” was run?
**A.** Its value is “less potent than [GPGRAF]8 -MLC”.
